Laboratory results from publication PMC5951591, “Transcriptional repression by ApiAP2 factors is central to chronic toxoplasmosis”.

How the values were obtained:
GST-AP2IV-4 (AP2 domain) [1] = target: T1, GST-AP2IV-4 (AP2 domain) (Toxoplasma gondii, UniProt S8FCP8 782-854); assay: EMSA; 50 ng protein, 20 fmol probe; EMSA: 20 fmol probe, 50 ng protein, 6% PAGE, LightShift Chemiluminescent EMSA kit; buffer, salt, pH and temperature not stated; details: protein: recombinant; tags: GST (N-terminal, pGEX4T3); label: 5'-biotin; blunt
GST-AP2IV-4 (AP2 domain) [2] = target: T1, GST-AP2IV-4 (AP2 domain); assay: competition; 300x excess unlabeled against N1; EMSA: 20 fmol probe, 50 ng protein, 6% PAGE, LightShift Chemiluminescent EMSA kit; buffer, salt, pH and temperature not stated; details: protein: recombinant; tags: GST (N-terminal, pGEX4T3); label: none; blunt
GST-AP2IV-4 (AP2 domain) [3] = target: T1, GST-AP2IV-4 (AP2 domain); assay: competition; 300x excess unlabeled against N1; did not compete; EMSA: 20 fmol probe, 50 ng protein, 6% PAGE, LightShift Chemiluminescent EMSA kit; buffer, salt, pH and temperature not stated; details: protein: recombinant; tags: GST (N-terminal, pGEX4T3); label: none; blunt

B1: PBM motif validation probe (WT, 59 bp) (dsDNA)
DNA 1: TTTGTAATATACGCTCCACCGCGTGCACCCCCCTCGACATGCCCCCGTATTGCTGATCG
DNA 2: CGATCAGCAATACGGGGGCATGTCGAGGGGGGTGCACGCGGTGGAGCGTATATTACAAA
- binding result (GST-AP2IV-4 (AP2 domain) [1]): binds

B2: PBM motif validation, unlabeled poly(dC) competitor (dsDNA)
DNA 1: TTTGTAATATACGCTCCACCGCGTGCACCCCCCTCGACATGCCCCCGTATTGCTGATCG
DNA 2: CGATCAGCAATACGGGGGCATGTCGAGGGGGGTGCACGCGGTGGAGCGTATATTACAAA
- binding result (GST-AP2IV-4 (AP2 domain) [2]): binds

B3: PBM scrambled cold competitor (60 bp) (dsDNA)
DNA 1: TACCCTGCCTCTTGTAGTAGTAACGTAAAAGAGGTAACGTGGTCAAATGCGATCAGAGAT
DNA 2: ATCTCTGATCGCATTTGACCACGTTACCTCTTTTACGTTACTACTACAAGAGGCAGGGTA
- binding result (GST-AP2IV-4 (AP2 domain) [3]): no binding
